Reference: US20250257112A1

Target: PTH receptor ("PTHIR")
Experiment: cell-based or functional assay

Substance | cAMP potency (EC50) [nM]
PTH-68, PTH(1-54)-[F34A, V35S]-hFcLALA-deltaLys (Fc fusion) | 0.21
PTH(1-84)-Fc with F34A, V35S (Fc fusion) | 0.28
PTH-66, PTH(1-74)-[F34A, V35S]-hFcLALA-deltaLys (Fc fusion) | 0.24
PTH-67, PTH(1-64)-[F34A, V35S]-hFcLALA-deltaLys (Fc fusion) | 0.24
